Results from patent US20150118238A1 (Eli Lilly, published 2015).

Tests used:
human c-Met-ECD-Fc-Flis [1] = biological target: T1, human c-Met-ECD-Fc-Flis (human); experiment: SPR (BIAcore), antibody captured by goat anti-mouse Fc, c-Met-ECD-Fc-Flis as analyte, 25 C, 1:1 model, n=2
T1 construct: Expressed in CHO cells; also called c-Met-ECD with Fc and Flis tag; ECD of human c-MET

human c-Met-ECD-Fc-Flis [2] = biological target: T1, human c-Met-ECD-Fc-Flis; experiment: SPR (BIAcore)
[3] = biological target: T2, RON on RON-transfected NIH 3T3 cells (UniProt Q04912 25-1400, limits assumed); experiment: IHC on FFPE cell microarray (Dako EnVision FLEX+), manual reading by brightfield microscope
T2 construct: whole, on cells; Formalin-fixed paraffin-embedded cell pellets in IHC; also called RON transfected NIH3T3 Cell Line
From the text: For staining human tumor cell lines, 60 million cells may be harvested, formalin-fixed, and processed into histogel. The histogel cell pellets may be embedded into paraffin blocks, cored, and designed into a cell microarray that may be re-embedded in a paraffin block and then microtomed onto slides. These slides may be immunohistochemically stained and counterstained using the IHC assay protocol as described above in Example 7. RON-transfected NIH 3T3 cells and mock NIH 3T3 cells (mouse embryonic fibroblasts) are used as non-c-MET expressing negative controls.

[4] = biological target: T3, ECD of human RON (R&D Systems, #1947-MS-050) (human, UniProt Q04912 25-957); experiment: IHC pre-absorption/blocking: Antibody II at 2 microgram/mL incubated overnight with RON ECD, then used to stain slides
T3 construct: extracellular domain; Bought reagent; also called MST1R
Method: The antibody, or antigen-binding fragment thereof, of the present invention at 2 microgram/mL may be incubated overnight with either c-Met-ECD-Fc-Flis (SEQ ID NO: 23) or the ECD of human RON (R&D Systems, #1947-MS-050) at 200× molar excess on a rotator at 4° C. After overnight incubation, the antibody, or antigen-binding fragment thereof, of the present invention may be tested against slides of human tissue or cancer cell lines as described above in Example 6.

T1 sequence (chain, as listed by the source limits assumed): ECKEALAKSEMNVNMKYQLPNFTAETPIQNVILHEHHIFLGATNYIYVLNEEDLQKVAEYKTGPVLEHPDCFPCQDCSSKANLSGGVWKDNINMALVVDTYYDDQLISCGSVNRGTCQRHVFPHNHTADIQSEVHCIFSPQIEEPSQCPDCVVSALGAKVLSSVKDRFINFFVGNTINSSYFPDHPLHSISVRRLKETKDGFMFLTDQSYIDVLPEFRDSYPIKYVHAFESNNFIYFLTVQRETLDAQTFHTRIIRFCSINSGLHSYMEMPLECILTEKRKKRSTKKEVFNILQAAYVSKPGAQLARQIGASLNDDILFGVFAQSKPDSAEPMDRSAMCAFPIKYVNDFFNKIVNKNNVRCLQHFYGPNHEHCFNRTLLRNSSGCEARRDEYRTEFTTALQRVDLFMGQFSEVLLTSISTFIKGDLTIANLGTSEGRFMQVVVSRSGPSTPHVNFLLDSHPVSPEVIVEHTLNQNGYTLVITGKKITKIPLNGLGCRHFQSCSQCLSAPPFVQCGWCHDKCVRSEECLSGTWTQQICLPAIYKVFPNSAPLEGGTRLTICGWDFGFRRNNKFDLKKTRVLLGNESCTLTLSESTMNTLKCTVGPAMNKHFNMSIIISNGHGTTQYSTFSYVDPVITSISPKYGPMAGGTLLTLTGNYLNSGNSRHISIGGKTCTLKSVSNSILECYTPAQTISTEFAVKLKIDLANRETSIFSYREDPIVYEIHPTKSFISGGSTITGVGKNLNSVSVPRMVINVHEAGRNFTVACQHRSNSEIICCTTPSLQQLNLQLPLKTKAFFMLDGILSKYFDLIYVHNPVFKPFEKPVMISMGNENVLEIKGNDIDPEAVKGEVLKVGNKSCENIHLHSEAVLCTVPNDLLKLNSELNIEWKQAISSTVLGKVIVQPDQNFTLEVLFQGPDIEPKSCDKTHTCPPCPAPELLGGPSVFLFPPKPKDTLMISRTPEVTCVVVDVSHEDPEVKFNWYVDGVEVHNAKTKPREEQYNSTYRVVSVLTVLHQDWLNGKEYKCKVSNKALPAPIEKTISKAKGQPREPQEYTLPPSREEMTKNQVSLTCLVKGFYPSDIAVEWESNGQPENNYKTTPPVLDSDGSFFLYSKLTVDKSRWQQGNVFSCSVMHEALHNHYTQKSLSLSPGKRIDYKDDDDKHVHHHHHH

Kd (human c-Met-ECD-Fc-Flis [1]) [nM]	koff (human c-Met-ECD-Fc-Flis [1]) [s⁻¹]	kon (human c-Met-ECD-Fc-Flis [1]) [M⁻¹ s⁻¹]	fold binding affinity compared to Antibody I (human c-Met-ECD-Fc-Flis [2]) [fold]	binding result [3]	binding result [4]	Binder
2.47	0.000302	123000	–	–	–	Antibody I (antibody, V domains shown, Captured by anti-mouse Fc and detected with anti-mouse IgG; also called R-PE-Antibody I (R-phycoerythrin conjugate used in the CTC assay)) VH: EVQLQQSGTVLARPGASVKMSCKASGYSFTSYWMYWVKQRPGQGLEWIGGFHPGNSGTNYNQKFKGKAKLTAVTSASTAYMELSSLTNEDSAVYYCTRGYYYDGSFTYWGQGTLVTVSA VL: EIQMTQSPASLSASVGETVTITCRASENIYSYLAWYQRKQGRSPQLLVYNAKPLAEGVPSRFSGSGSGTQFSLKINSLQPEDFGTYYCQHHYGTPFTFGSGTRLEIKR
0.37	4.6e-05	125000	> 5	no binding (tested: 2 µg/mL)	no binding (tested: 200× molar excess)	Antibody II (antibody, V domains shown, also called R-PE-Antibody II (R-phycoerythrin conjugate used in the CTC assay); Antibody II (Anti-cMET)) VH: EVQLQQSGTVLARPGASVKMSCKASGYSFTSYWMYWVKQRPGQGLEWIGGFHPRNSGTNYNQKFKGKAKLTAVTSASTAYMELSSLTNEDSAVYYCTRGYYYDGSFTYWGQGTLVTVSA VL: EIQMTQSPASLSASVGETVTITCRASENIYSYLAWYQRKQGRSPQLLVYNAKPLAEGVPSRFSGSGSGTQFSLKINSLQPEDFGTYYCQHHYGTPFTFGSGTRLEIKR
